Target: the molecule itself
Assay: high-speed AFM

B1: Toll/interleukin-1 receptor domain of MyD88 (TIR_(MyD88)), wild type (domain or fragment)
chain: PLGHMPERFDAFICYCPSDIQFVQEMIRQLEQTNYRLKLCVSDRDVLPGTCVWSIASELIEKRCRRMVVVVSDDYLQSKECDFQTKFALSLSPGAHQKRLIPIKYKAMKKEFPSILRFITVCDYTNPCTKSWFWTRLAKALSLP
- stoichiometry N: 58 subunits

Source: publication doi:10.1101/2024.09.13.612588 (bioRxiv, 2024)
